In a protein production outcome set (Wang et al. 2014):

Assay: label from the status in PepcDB records
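Note: failed if final PepcDB status was selected cloned or expressed and not failed if soluble or beyond.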

Sequence | protein production
MELKMNDINQHSFLKLGSVRHIQSEQEALEIAKEMANQLNQFARNPSYNKTVPYDQARLISEAGLTAIIVPKQFGGLGASISTLVNVVKIISSADGGVGQLLQIHFTMFRGILTGYDDEIRDQLLADVLSGKRLGNALAEVGGKDKFQHKTRVERNSEGKLILNGSKFYSTGSLLAEWISLFAGSDDGPVSILIHRDTQGVELLNDWDAMGQNNSVSGTVNFKDVVVDERYVAKRNTGGLGTVLRTGLTWPQILHAAMDTGIAKGALQGGIDYLQHHARPWVESGVDSPTHESHIIKQIGEFAVLVRSAEALLDRSAQIFEQHLANVEDEDLQTELILSVAATRSQSDHASLKISSEIFGLLGASSTLSKWNLDRFWRNARTHTTHDPIRWRLYHVGNYYLNNIPPGEYNSVLLKKQAENVTKFSK | failed
MKRKISMNKYVVSTILVMISTFFSRIMGFVKIKIFSYYFGANLDADIFNYVFNIPNNLRKILSEGAMTSAFLPEFTHEKNKSHEKAVSFFRTVITFNIISIGLIVLVMIIFAKPIMYFISYYRGENLIFASSVFGYLVLYILLISLSSIFVSVLNSYKIFFIPSFSPIMLSFGIILSIFLFYGRFGIYSAVIGVIFGGFLQFLIPFANCLMIGFAWKPTFYFREKVFLNFLTRWLRMIFGFSISIITQQISFALASTLEIGSVSILSNAVVYYQLPVGIFYISIATVIFPKMAEHAVLGNNIKLNALLVDGIKILLLIFIPVSFLMFIWSDYILNLFLMGGKFSIYDTQKTASVLKCFLLGLLFYSMFGFFQKYYFSIRDAKTPFYLSVLFSILDIAISVFGINYYGLNALALAQSISFMICVIVFYFIILKRGVKIDLIEILFVLLKSIITLFPLYAIYFFFEKFQWDVGFSFKNLYFLMAAGIVSIFVLFICYSVLGINKLFRYIRRDAL | failed
MSTAVFLGFIVLSLYLALRSRKGTGSQSAHDFFVASRQFGAFLVFFLAAGEIYSVATMVGFAGGIYAKGPTYGIWFLGYILLAYPLGYFLAPKIWEAGQRFNAITLADLFKGHFDNRAVEFVVALSSILFLLPMAQLQFTGLIAAFRGLGWSFQPLHLVLIAAVLAFTYIAISGVRSSAYVAVLKDVLMVVAIVVTGLAVAGEVGVAKVFHVASEHVSNRMNDEQLRFSMSTILFQSLGFYMMPISVQFIYTAKSADTIRRTQVAMPLYMLMYPFLVLASYYALTRSDTLATANEAFFVAATHLLPSWLLGLVAAAAALSGLLVLTGMCLAIGPIVTRNLLPHLPESRQKAGAKGVIVVYLIVSILMTLMAPNLMLTLINTTYYGVTQFLPGMIVILFSLRVRPSAVVLGILTGQLMAVVLYLEKVDLGGINLGLPCLAANVVVMVVLNLLRTPKGLQATA | failed
ALQDRTQFSDRDLATLKKYWDNGMTSLGSVCREKIEAVATELNVDCEIVRTWIGNRRRKYRLMGIEV | not failed
MSLKDMIDSIEQFAQTQADFPVYDCLGERRTYGQLKRDSDSIAAFIDSLALLAKSPVLVFGAQTYDMLATFVALTKSGHAYIPVDVHSAPERILAIIEIAKPSLIIAIEEFPLTIEGISLVSLSEIESAKLAEMPYERTHSVKGDDNYYIIFTSGTTGQPKGVQISHDNLLSFTNWMIEDAAFDVPKQPQMLAQPPYSFDLSVMYWAPTLALGGTLFALPKELVADFKQLFTTIAQLPVGIWTSTPSFADMAMLSDDFCQAKMPALTHFYFDGEELTVSTARKLFERFPSAKIINAYGPTEATVALSAIEITREMVDNYTRLPIGYPKPDSPTYIIDEDGKELSSGEQGEIIVTGPAVSKGYLNNPEKTAEAFFTFKGQPAYHTGDIGSLTEDNILLYGGRLDFQIKYAGYRIELEDVSQQLNQSPMVASAVAVPRYNKEHKVQNLLAYIVVKDGVKERFDRELELTKAIKASVKDHMMSYMMPSKFLYRDSLPLTPNGKIDIKTLINEVNNREGHHHHHH | not failed
MAEKSCSLTEFVGTAIGDTLGLVIANVDTALLDAMKLEKRYRSIGILGARTGAGPHIMAADEAVKATNTEVVSIELPRDTKGGAGHGSLIILGGNDVSDVKRGIEVALKELDRTFGDVYGNEAGHIELQYTARASYALEKAFGAPIGRACGIIVGAPASVGVLMADTALKSANVEVVAYSSPAHGTSFSNEAILVISGDSGAVRQAVTSAREIGKTVLATLGSEPKNDRPSYI | not failed
MILTPLALTPDHDIPGPVLTELTALYASHRAFHALSGDFPDPEDIRPEQVATALADELARPGAEVLLARDAGRLVGVAVTLARHPDPSDPDPWIGLLMVDAGLTRQGHGSRLVSLVEDRFRAAGRTAVRLAVLDGNTDALSFWTALGYRVLDHRRDLGAERPCTVLRRELASDKPRTPRRAARVAVLDPEGAVFLLRYDNVEVGVHWAMPGGGLEADENPREGALREVREETGWTDLEPGPLLCTWEHDFTHLSVGPVRQYEHIYVAQGPRREPTGPHLAAAHAADGILTWRWWSRAELAEAPEPLWPPDLALLLETFGGREG | failed
MGSSLPFDLILEILQRTPAESLLRFKSTCKKWYELISNDKRFMYKHLDKSTKRFLRIENRERVQILDPVTEILAVSTIPNELRHKYFTLIHCDGLMLGMCYEELGSDPNLAVWNPVMRKIKWIKPSPPLVCYWGSDYLGFGYDKTFRDNYKILRFTYLGDDDDDESYPKCQIYEFNSGSWRSIEAKFDGEIDVEVDGVSVNGSMYWIELQEKKNFILSFDFSKETFNRICDSPLYWDIKRLGCFNGDRLSLLQQNEATREIHVSVTNKLSDEVVSFSRYFSVTLPDIPLFRSIDILPLPGCFIGKNRNIIAWCEQLVGKYDDHTSIILYEIGEGGVTKRIRTGRHEADEDYNDLDNCSYVYVPSLIPVPE | failed
MMIMNNFDEKKLIQEFSKIQSELSPRIKLENNFQIEEIQFIAGVDLAYWNVNKTKYGTCCIVIIDYGTKEVVEKVYSYGEIPIPYIPGFLAFRELPLIIEAVKKLTKQPDIYFFDGNGYLHYRHMGIATHASFLLNKPTIGVAKSYLKIRDVDFIMPENLKGSYTDIVINNEVYGRTLRTTKNVKPIFVSCGNWIDLDTSTEIVMNCINNESRLPIPVRLADLETHKMRKKLMEGLEHHHHHH | failed
MFDIGWSELLVIAVVLIVVVGPKDLPPMIRAFGKTMAGLRKMAGDFRTQFDEALKEADMDDVRQTISDVRNLNPTNSLRDAMNPLRQLGNEIKSDLQKATSPSDGLSSTAAPATSEPVAPLVNVPEPDMKLPDSPPAVAAAPAPVAAASVAAEKPKRARAKSIATVEAEAVAAKPKRVSRSKAVATPETTVATNASEPASPKPTVKTIAKKATVKKIAAEKSVAVADAKPAKAARTKAAKPKKDEA | failed
MITNAFNEYKNEYAFDNVYGHLIEILKRNLDISTESGVVHLDIGCGYGAIAEHITGEVGRVYVGIDANKSGLKSLKDRGFETHEHFLESQEDALSFFERVIGDRKLGSISMLDTLEHLPNGLSILKAIATLASKHSAMVAISVPNIQHRDIGFKLALGSIAYTDAGLLDHTHVMMYDYDHLDRVLRHAGLRICDQNHVRVNHSDQFFPRDHPVLQNATTIRTFLKYVRANVNDQDQINQFVVAALPCEPITGPTFEAVRDVDRPFLSIVTRTQGKRIHTLVEYFTCLAGQVCRDFEVFVVGHRLSLERQIAIEQVIEDLPLWLRDKTKLIRVDHGNRTHPLNVGFAQANGRYIAIHDDDDIPMGHWVDSFRKLAIENDGALLRCVSSLQHVETVSLRGRDGVRSIGKTGPFPSEFDFIQHLSGNYSPNNTLAFPRGVFHHLNMRFDENLTTTEDWDYIMRVASVVGVASSPEITGTYQWWEKGNSLAMHTDNEWALNKAWIQEKLDARPILIPAGTVRKILSLWEHANNVATQLDAVSHRNAIIEGQLGAMSQYDIDVQAQMKAISDHVNFLKSEIDRNRNEAVDQQYLLREIGDIIDSTSWKLSAPMRWPKRILGARSSRLTDHLGSSVQQLQETKRRLLSSRSWRATRPMRAVARLFKVHPI | failed
MKVLTDLQKRIFAIVKKENGKPIPPGIVVRMMENQAGFPGKQQVYRAIDDLLEWHIFRKSGGATNQLLINYELADPVLDQKFQGILNLGNKNTGFVRPLDDDKTVYYIHFSNLAGALDGDLVEFCPLDKPQVGDKFDAAVLKIVKRSRVLYAGNFLIEYSDFGQEFRIVADNPRFYLTPIVNKASVPAELESNTKVAFQIDEYDPANNLCKVSIQQILGNNDEPLINLKAIMLDHSIVFEDNDVVEQQAAKLQFDEKEQSKPYRKDLTELAFVTIDPATSKDLDDAIYVKRTDKGFVLYVAIADVAYYVQRNSELDIEARHKTSSIYLPGYYVVPMLPERLSNELCSLNPNEKRYVVVCELNFDHEARLNFSEVYPATIVSQRRFAYSEVNDWLEDSDALKDESATVLESLKAGFTLSELIAEQRKKKGTIDLSHSETEVVVDQNYYPIEIRFLTHGKAETMIENLMVVANEAVAWTLTNHKVHLPYRVHPRPSKKKLQMLLENIVELKITQPNFVLDTVTSTQIAAWLKENKDNPSYDIFVILLLRTLGKAFYIVNPLIHFSIGSHHYTHFTSPIRRYADLTVHRLLWMNLFTPERFTDTEREQLNAELEQICETINDTEIKINGCERTANDYLTTLYLSKQVGQTFHGFISAITSFGIFMRMDENNFDGLIKITSIPEDFFVFEKDRMVLRGKRTNKVFRIGDRLTAKLTEIDTVQKRAILTLV | failed
STALIQLYSLCEHAFHRHLGSGSDSRQTIERYSSPKVRRLLQTLRCFKPEEVHTQADGLRRMRHQVDQADFNRLSHTLESKCRMVDQMDQPPTETRALVATLEQILHTTEDRQTNRSAARVTPTPTPAHAKPKPSSGANTAQPRTRRRVY | failed
MRLDKFIAQQLGVSRAIAGREIRGNRVTVDGEIVRNAAFKLLPEHDVAYDGNPLAQQHGPRYFMLNKPQGYVCSTDDPDHPTVLYFLDEPVAWKLHAAGRLDIDTTGLVLMTDDGQWSHRITSPRHHCEKTYLVTLESPVADDTAEQFAKGVQLHNEKDLTKPAVLEVITPTQVRLTISEGRYHQVKRMFAAVGNHVVELHRERIGGITLDADLAPGEYRPLTEEEIASVV | not failed
MKSLATDMTEGNVSKHLIKFAIPLILGNLFQLTYNASDSIIVGRFVGKNALAAVGIANPIMNIVMFFIVGICLGASVLMSEYYGAGNVKKLRREISTTVIAGFIFTVLIIIICVIFTEPILGLVKTPKEIIPEAAIYLRIIFISLIFTFFYNIYAAALRSIGDSKNPLLFLMISAVLNVVMDIVFVVWLKMGVAGSAIATSVAEMMSCVFCIVYVHFKIPILKFSFKDMVIDKGLLRSTVNYSWATAMQQTCLYVGKFMVQGAVNPLGVNSIAAFNAVNRVDDFAFAPEQSISNAMTTFLAQNRGANKYKRIKKGFLTGMKLETLYWCILVGIVYLGSTAIMKLFVSGSEVKVISIGSYYLKLMAFFYLLPSWTNGVQGYFRGMGDMKITLRSTFSQIVGRVAFSYILAPRIGMVGIAFSCLGGWIVMLAYEVPCLIKYRRNFNNKLSESSI | failed
MKFDRHRRLRSSATMRDMVRENHVRKEDLIYPIFVVEKDDVKKEIKSLPGVYQISLNLLESELKEAYDLGIRAIMFFGVPNSKDDIGTGAYIHDGVIQQATRIAKKMYDDLLIVADTCLCEYTDHGHCGVIDDHTHDVDNDKSLPLLVKTAISQVEAGADIIAPSNMMDGFVAEIRRGLDEAGYYNIPIMSYGVKYASSFFGPFRDAADSAPSFGDRKTYQMDPANRLEALRELESDLKEGCDMMIVKPALSYLDIVRDVKNHTNVPVVAYNVSGEYSMTKAAAQNGWIDEERVVMEQMVSMKRAGADMIITYFAKDICRYLDK | failed
MTTWKELTDNNPAHSENYAQRWRNLAAAGNDIYGEARLIDAMAPRGAKILDAGCGQGRIGGYLSKQGHDVLGTDLDPILIDYAKQDFPEARWVVGDLSVDQISETDFDLIVSAGNVMGFLAEDGREPALANIHRALGADGRAVIGFGAGRGWVFGDFLEVAERVGLELENAFESWDLKPFVQGSEFLVAVFTKK | not failed
MSETLAVVRASRPNFLLLAPLCAGLGLAVAWQQGQAPELLHTFLVFLGAVLAHAAVNLLNEYDDFRSGLDMITERTPFSGGSGALPEVPTAARRVLWAGLGTLAVVVTIGLYFLWLRGLPLLVLGAAGVVLVLTYTRWITRSPLLCLLAPGMGFGPIMVLGTVIALGASIDTSALLASLVALLMVSELLLINQIPDAEADRAIGRRHLVITLGPEKAAHLVAGLLLASYGVIVAGMVSGYLAMTSLIALAPLPAAVWISLRLPRVLAMPDQLNRVLGANVAVLLSTLALLVTGLSL | failed
